Laboratory results from paper doi:10.1101/669069.
Where “and” joins values, the source holds several entries; their conditions need not be identical. Equal values may be shown once.

How the values were obtained:
[1] = stopped-flow tryptophan fluorescence, urea-induced dissociation kinetics; settings: other: stopped-flow tryptophan fluorescence
[2] = target: Methionine S-adenosyltransferase (MAT) from U. urealiticum (U. urealiticum); test: native MS
[3] = target: Methionine S-adenosyltransferase (MAT) from U. urealiticum (U. urealiticum); test: crystal structure
[4] = target: Methionine S-adenosyltransferase (MAT) from U. urealiticum (U. urealiticum); test: SEC-MALS
[5] = target: Methionine S-adenosyltransferase (MAT) from U. urealiticum (U. urealiticum); test: crystal structure; remark: listed apart in the source
[6] = target: Methionine S-adenosyltransferase (MAT) from U. urealiticum (U. urealiticum); test: SEC-MALS; remark: listed apart in the source

Substance	kobs of urea-induced tetramer dissociation (3 M urea, with SAM) [1]	stoichiometry N [2]	stoichiometry N [3]	stoichiometry N [4]	stoichiometry N [5]	stoichiometry N [6]
Methionine S-adenosyltransferase (MAT) from U. urealiticum	kobs ∼ 0.1sec^-1					
Methionine S-adenosyltransferase (MAT) from U. urealiticum (enzyme)		4 and 2	4	4	4	4 and 2
